Measurements reported in patent publication US20080064629A1, “Amphiregulin as a Protective Agent in Acute Hepatic Injury” (priority 2004, published 2008).

What was measured:
[1] = test system: male C57/BL6 mice; test: Acute liver damage induced by CCl4 in mice, treatment with AR; assay type: in vivo; conditions: AR 9.5 μg/mouse i.p. 0.5 h before and 12 h after CCl4
Experimental: The experiments were carried out in compliance with the guidelines of the University of Navarra relating to the use of laboratory animals. Cirrhosis was induced with CCl4 in male Wistar rats as described elsewhere [(16) Castilla-Cortazar, I., Garcia, M., Muguerza, B., Quiroga, J., Perez, R., Santidrian, S., Prieto, J. 1997. Hepatoprotective effects of insulin-like growth factor I in rats with carbon tetrachloride-induced cirrhosis. Gastroenterology 113:1682-1691). Two-thirds PH or sham operations were performed on male Wistar rats (150 g) and male C57/BL6 mice (20 g) according to the method of Higgins and Andersen [(17) Higgins, G. M., Andersen, R. M. 1931. Experimental pathology of liver: restoration of liver of the white rat following partial surgical removal. Arch. Pathol. 12:186-202. (18) Latasa, M. U., Boukaba, A., García-Trevijano, E. R., Torres, L., Rodríguez, J. L., Caballería, J., Lu, S. C., López-Rodas, G., Franco, L., Mato, J. M., et al. 2001. Hepatocyte growth factor induces MAT2A expression and histone acetylation in rat hepatocytes. Role in liver regeneration. FASEB J. 10.1096/fj.00-0556fje. (19) Chen, L., Zeng, Y., Yang, H., Lee, T. D., French, S. W., Corrales, F. J., García-Trevijano, E. R., Avila, M. A., Mato, J. M., and Lu, S. C. 2004. Impaired liver regeneration in mice lacking methionine adenosyltransferase 1A. FASEB J. 18: 914-916]. Following sedation, in the sham operated animals the liver was exposed and then returned to the abdominal cavity. […] At the indicated timepoints, mice were subjected to blood sampling and the sera were analysed for alanine and aspartate aminotransferase (ALT and AST) as described elsewhere [(16) and (21) Lasarte, J. J., Sarobe, P., Boya, P., Casares, N., Arribillaga, L., López-Díaz of Cerio, A., Gorraiz, M., Borrás-Cuesta, F., Prieto, J. 2003. […]

[2] = test system: male C57/BL6 mice; test: Acute liver damage induced by Jo2 antibody (Fas activation) in mice, treatment with AR; assay type: in vivo, mouse
Experimental: The experiments were carried out in compliance with the guidelines of the University of Navarra relating to the use of laboratory animals. Cirrhosis was induced with CCl4 in male Wistar rats as described elsewhere [(16) Castilla-Cortazar, I., Garcia, M., Muguerza, B., Quiroga, J., Perez, R., Santidrian, S., Prieto, J. 1997. Hepatoprotective effects of insulin-like growth factor I in rats with carbon tetrachloride-induced cirrhosis. Gastroenterology 113:1682-1691). Two-thirds PH or sham operations were performed on male Wistar rats (150 g) and male C57/BL6 mice (20 g) according to the method of Higgins and Andersen [(17) Higgins, G. M., Andersen, R. M. 1931. Experimental pathology of liver: restoration of liver of the white rat following partial surgical removal. Arch. Pathol. 12:186-202. (18) Latasa, M. U., Boukaba, A., García-Trevijano, E. R., Torres, L., Rodríguez, J. L., Caballería, J., Lu, S. C., López-Rodas, G., Franco, L., Mato, J. M., et al. 2001. Hepatocyte growth factor induces MAT2A expression and histone acetylation in rat hepatocytes. Role in liver regeneration. FASEB J. 10.1096/fj.00-0556fje. (19) Chen, L., Zeng, Y., Yang, H., Lee, T. D., French, S. W., Corrales, F. J., García-Trevijano, E. R., Avila, M. A., Mato, J. M., and Lu, S. C. 2004. Impaired liver regeneration in mice lacking methionine adenosyltransferase 1A. FASEB J. 18: 914-916]. Following sedation, in the sham operated animals the liver was exposed and then returned to the abdominal cavity. Acute liver damage was induced in male C57/BL6 mice (20 g) (n=3-5 per condition and time point) by means of a single intraperitoneal injection of CCl4 (1 μl/g body weight in olive oil) (Sigma, St. Louis, Mo., USA) or Jo2 monoclonal antibody (4 μg/mouse in saline solution) (BD PharMingen, San Diego, Calif., USA) [(5),(20) Martínez-Chantar, M. L., Corrales, F. J., Martínez-Cruz, A., García-Trevijano, E. R., Huang, Z. Z., Chen, L. X., Kanel, G., Avila, M. A., Mato, J. M., Lu, S. C. 2002. Spontaneous oxidative stress and liver tumors in mice lacking methionine adenosyltransferase 1A. FASEB J. 10.1096/fj.02-0078fje]. The controls received an equivalent volume of olive oil or saline solution. In the cases indicated, the mice received an intraperitoneal injection of human recombinant AR (9.5 μg/mouse) (Sigma) 6 and 0.5 h before and 3 h after Jo2 antibody, or 0.5 h before and 12 h after CCl4. At the indicated timepoints, mice were subjected to blood sampling and the sera were analysed for alanine and aspartate aminotransferase (ALT and AST) as described elsewhere [(16) and (21) Lasarte, J. J., Sarobe, P., Boya, P., Casares, N., Arribillaga, L., López-Díaz of Cerio, A., Gorraiz, M., Borrás-Cuesta, F., Prieto, J. 2003. A recombinant adenovirus encoding hepatitis C virus core and E1 proteins protects mice against cytokine-induced liver damage. Hepatology 37: 461-470]. Mice were sacrificed by cervical dislocation, and the livers were quickly frozen in liquid nitrogen, or fixed in formalin and embedded in paraffin for staining with hematoxylin and eosin (H&E).
Caspase-3 activity in mouse hepatocytes and liver tissue lysates was assessed using the Caspase-3/CPP32 colorimetric assay kit (BioVision, Palo Alto, Calif., USA). Cells in culture (5×10^5 per condition) were lysed directly in the lysis buffer supplied with the kit after the corresponding treatments. Liver tissue was homogenized using a Dounce homogenizer in lysis buffer, followed by centrifugation at 15,000 rpm during 10 min. […]

[3] = test system: hepatocytes; test: Apoptosis induced by other agents (TNFα plus galactosamine, okadaic acid, TGFβ) in hepatocytes; assay type: cell-based; conditions: okadaic acid and TGFβ, data not shown
[4] = test system: cultured mouse hepatocytes; test: Antiapoptotic signaling pathways (Western blot of phosphorylation) in cultured mouse hepatocytes; assay type: cell-based; conditions: AR 20 nM, different times
Experimental: (§1) Hepatocytes were isolated from male Wistar rats (150 g) and C57/BL6 mice (20 g) by perfusion with collagenase (Gibco-BRL, Paisley, UK) as described elsewhere [(18), (20)]. Cells (5×10^5 cells per well) were plated onto 6-well plates coated with collagen (type I collagen, Collaborative Biomedical, Bedford, Mass., USA). Cultures were maintained in MEM medium supplemented with 10% fetal calf serum (FCS), non-essential amino acids, glutamine 2 mM and antibiotics (all supplied by Gibco-BRL). After 2 h of incubation, the medium was removed and cells were again cultured in the same medium with 5% FCS. Where applicable, hepatocytes were treated with IL-1β or TNFα from Roche (Mannheim, Germany), HGF or forskolin from Calbiochem (San Diego, Calif., USA), IL6 from RD Systems (Wiesbaden-Nordenstadt, Germany), or PGE2 from Alexis QBiogene (Carlsbad, Calif., USA).
(§2) Homogenates from liver samples and isolated hepatocytes were subjected to Western blot analysis as described elsewhere [(19, (20)]. Antibodies used were: affinity purified and biotinylated polyclonal antibody specifically targeted to murine AR (BAF989)(RD Systems); specific antibodies for the p17 subunit of active caspase-3 (9664S), phosphorylated Akt (Ser473) (9271S) and phosphorylated STAT3 (Tyr^705) (9131S) (Cell Signaling, Beverly, Mass., USA); ERK1/2 (06-182), phosphorylated EGF-R (Tyr^1173)(05-483) and STAT3 (06-596)(Upstate Biotechnology, Charlottesville, Va., USA). All other antibodies were from Santa Cruz Biotechnology (Santa Cruz, Calif., USA): BclxL (sc8392), Bcl2 (sc7382), EGF-R (sc-03), phosphorylated ERK1/2 (Tyr^204) (sc7383), Akt (sc5298), JNK (sc571), and phosphorylated JNK (Thr^183/Tyr^185) (sc6254).

[5] = test system: cultured rat hepatocytes; test: EGF-R and proliferation signaling pathways (Western blot of phosphorylation) in cultured rat hepatocytes; assay type: cell-based
Experimental: as §1, §2

[6] = 24 h after injection of CCl4 (1 μl/g i.p.)
[7] = rat hepatocytes, different times after addition of AR

B1: amphiregulin (protein)
chain: SVRVEQVVKPPQNKTESENTSDKPKRKKKGGKNGKNRRNRKKKNPCNAEFQNFCIHGECKYIEHLEAVTCKCQQEYFGERCGEKSMKTHSMIDSSLSK
notes: polypeptide growth factor belonging to the EGF family, ligand of EGF receptor; human recombinant AR (Sigma) used
For B1, the “degree of histological damage (liver, H&E)” value ([1]; 24 h after CCl4) was “decreased”, the “serum level of ALT” value [1, 6] was “clearly attenuated” and the “serum level of AST” value [1, 6] was “clearly attenuated”. The “serum transaminase (AST and ALT) elevation” value ([2]; 12 h after Jo2 (4 μg/mouse i.p.), AR 9.5 μg/mouse i.p. 6 and 0.5 h before and 3 h after Jo2) was “strongly suppressed”, the “liver damage by histopathological analysis” value ([2]; 12 h after Jo2, AR 9.5 μg/mouse i.p. 6 and 0.5 h before and 3 h after Jo2) was “almost completely avoided liver damage” and the “induction of caspase-3 activity in mouse liver extracts” value ([2]; 12 h after Jo2 injection, AR 9.5 μg/mouse i.p.) was “strongly inhibited”. For the same molecule, the “levels of Bcl-xL protein in liver (Western blot)” value ([2]; AR and Jo2 versus Jo2 alone, 6 h after injection of Jo2, 12 h (figure legend)) was “greater”, the “rupture of caspase-3 (p17 subunit of active caspase-3, Western blot) in liver” value ([2]; liver extracts after Jo2 injection, AR 9.5 μg/mouse i.p.) was “avoided” and the “cytoprotective activity against apoptosis induced by other agents” value [3] was “cytoprotective activity was also seen”. The “phosphorylation of Akt” value [4] was “increased phosphorylation”, the “phosphorylation of ERK1/2” value [4] was “increased phosphorylation” and the “phosphorylation of STAT3” value [4] was “stimulate phosphorylation”. For the same molecule, the “phosphorylation of EGF-R on tyrosine residues” value ([5]; isolated rat hepatocytes treated with AR) was “rapid and transient phosphorylation”, the JNK phosphorylation [5, 7] was “observed JNK phosphorylation” and the “phosphorylation of Akt” value [5, 7] was “rapidly induces phosphorylation”. For the same molecule, the “phosphorylation of ERK1/2” value [5, 7] was “rapidly induces phosphorylation”.
